{"source": "paper PMC3269570", "about": "(European Biophysics Journal, 2011)", "target": "the molecule itself", "assay": "cross-linking", "data": [{"protein": "MQRINKNVVLALLTLTSSAFLLFQLYYYKHYLSARN", "note": "[N-terminal transmembrane domain of Fukutin-I (FK1TMD), unlabelled peptide]", "values": [{"measurement": "stoichiometry N", "value": 2}]}]}
